Source: patent publication US20250163162A1 (SYNTHEKINE, published 2025)
One block for each binder: values may come before it.

Legend:
Experiment in all cases: cell-based or functional assay
IL10Rα/IL2Rγ receptor [1] = target: T1, IL10Rα/IL2Rγ receptor (human, UniProt Q13651 22-578; P31785 23-369)
T1 sequence (looked up) 1: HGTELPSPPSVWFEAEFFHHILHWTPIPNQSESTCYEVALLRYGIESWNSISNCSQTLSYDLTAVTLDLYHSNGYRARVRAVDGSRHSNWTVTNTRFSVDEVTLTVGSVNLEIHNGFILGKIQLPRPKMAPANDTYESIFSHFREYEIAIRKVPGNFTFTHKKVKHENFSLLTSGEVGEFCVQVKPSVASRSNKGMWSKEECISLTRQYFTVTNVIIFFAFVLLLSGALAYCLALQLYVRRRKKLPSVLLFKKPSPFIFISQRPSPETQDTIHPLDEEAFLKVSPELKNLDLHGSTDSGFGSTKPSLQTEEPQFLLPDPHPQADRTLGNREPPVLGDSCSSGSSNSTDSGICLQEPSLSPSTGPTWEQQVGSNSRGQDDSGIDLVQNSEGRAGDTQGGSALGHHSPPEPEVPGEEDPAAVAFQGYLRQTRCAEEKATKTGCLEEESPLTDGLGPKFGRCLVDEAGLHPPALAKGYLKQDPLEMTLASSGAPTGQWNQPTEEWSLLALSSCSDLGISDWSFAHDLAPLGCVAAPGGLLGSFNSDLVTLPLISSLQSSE
T1 sequence (looked up) 2: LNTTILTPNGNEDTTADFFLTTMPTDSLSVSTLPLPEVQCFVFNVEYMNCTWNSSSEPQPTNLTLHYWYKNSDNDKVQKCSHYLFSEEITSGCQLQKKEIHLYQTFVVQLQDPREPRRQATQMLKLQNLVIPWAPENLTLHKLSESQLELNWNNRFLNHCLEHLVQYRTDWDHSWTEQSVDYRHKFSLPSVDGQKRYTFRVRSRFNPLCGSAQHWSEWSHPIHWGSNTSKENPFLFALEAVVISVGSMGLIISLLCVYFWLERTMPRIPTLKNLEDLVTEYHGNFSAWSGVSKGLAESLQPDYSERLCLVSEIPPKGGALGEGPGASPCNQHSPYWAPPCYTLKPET

IL10Rα/IL2Rγ receptor [2] = target: T1, IL10Rα/IL2Rγ receptor; remark: listed apart in the source
IL10Rα/IL2Rγ receptor [3] = target: T1, IL10Rα/IL2Rγ receptor; remark: listed apart in the source
IL10Rα/IL2Rγ receptor [4] = target: T1, IL10Rα/IL2Rγ receptor; remark: listed apart in the source
IL10Rα/IL2Rγ receptor [5] = target: T1, IL10Rα/IL2Rγ receptor; remark: listed apart in the source
IL10Rα/IL2Rγ receptor [6] = target: T1, IL10Rα/IL2Rγ receptor; remark: listed apart in the source

pSTAT3 MFI, B cells, 100 nM (unstimulated 1045) (IL10Rα/IL2Rγ receptor [1]): 1080 MFI
pSTAT3 MFI, CD4+ T cells, 100 nM (unstimulated 1778) (IL10Rα/IL2Rγ receptor [1]): 3520 MFI
pSTAT3 MFI, CD8+ T cells, 100 nM (unstimulated 1288) (IL10Rα/IL2Rγ receptor [1]): 2260 MFI
pSTAT3 MFI, Monocytes, 100 nM (unstimulated 1787) (IL10Rα/IL2Rγ receptor [1]): 1860 MFI
pSTAT3 MFI, NK cells, 100 nM (unstimulated 1149) (IL10Rα/IL2Rγ receptor [1]): 1290 MFI
B1: DR468(DR240-DR234) (bispecific antibody)
chain: QVQLQESGGGSVQAGGSLRLSCGASGYTYSSYCMGWFRQVPGKEREGVAVIDSDGSTSYADSVKGRFTISKDNGKNTLYLQMNSLKPEDTAMYYCAADLGHYRPPCGVLYLGMDYWGKGTQVTVSSGGGSQVQLQESGGGSVQAGGSLRLSCVASGYTFSSYCMGWFRQAPGKEREGVAALGGGSTYYADSVKGRFTISQDNAKNTLYLQMNSLKPEDTAMYYCAAAWVACLEFGGSWYDLARYKHWGQGTQVTVSSASHHHHHH

pSTAT3 MFI, B cells, 100 nM (unstimulated 1045) (IL10Rα/IL2Rγ receptor [1]): 1100 MFI
pSTAT3 MFI, CD4+ T cells, 100 nM (unstimulated 1778) (IL10Rα/IL2Rγ receptor [1]): 3170 MFI
pSTAT3 MFI, CD8+ T cells, 100 nM (unstimulated 1288) (IL10Rα/IL2Rγ receptor [1]): 2310 MFI
pSTAT3 MFI, Monocytes, 100 nM (unstimulated 1787) (IL10Rα/IL2Rγ receptor [1]): 1870 MFI
pSTAT3 MFI, NK cells, 100 nM (unstimulated 1149) (IL10Rα/IL2Rγ receptor [1]): 1280 MFI
B2: DR466(DR240-DR232) (bispecific antibody)
chain: QVQLQESGGGSVQAGGSLRLSCGASGYTYSSYCMGWFRQVPGKEREGVAVIDSDGSTSYADSVKGRFTISKDNGKNTLYLQMNSLKPEDTAMYYCAADLGHYRPPCGVLYLGMDYWGKGTQVTVSSGGGSQVQLQESGGGSVQAGGSLRLSCVASGYTSCMGWFRQAPGKEREAVATIYTRGRSIYYADSVKGRFTISQDNAKNTLYLQMNSLKPEDIAMYSCAAGGYSWSAGCEFNYWGQGTQVTVSSASHHHHHH

pSTAT3 MFI, B cells, 0.0001 nM (unstimulated 1193.5) (IL10Rα/IL2Rγ receptor [2]): 1120 MFI
pSTAT3 MFI, B cells, 0.001 nM (unstimulated 1193.5) (IL10Rα/IL2Rγ receptor [2]): 1130 MFI
pSTAT3 MFI, B cells, 0.01 nM (unstimulated 1193.5) (IL10Rα/IL2Rγ receptor [2]): 1130 MFI
pSTAT3 MFI, B cells, 0.1 nM (unstimulated 1193.5) (IL10Rα/IL2Rγ receptor [2]): 1120 MFI
pSTAT3 MFI, B cells, 1 nM (unstimulated 1193.5) (IL10Rα/IL2Rγ receptor [2]): 1220 MFI
pSTAT3 MFI, B cells, 10 nM (unstimulated 1193.5) (IL10Rα/IL2Rγ receptor [2]): 1540 MFI
pSTAT3 MFI, B cells, 100 nM (unstimulated 1193.5) (IL10Rα/IL2Rγ receptor [2]): 1470 MFI
pSTAT3 MFI, CD8 T cells, 0.0001 nM (unstimulated 1446) (IL10Rα/IL2Rγ receptor [3]): 1380 MFI
pSTAT3 MFI, CD8 T cells, 0.001 nM (unstimulated 1446) (IL10Rα/IL2Rγ receptor [3]): 1410 MFI
pSTAT3 MFI, CD8 T cells, 0.01 nM (unstimulated 1446) (IL10Rα/IL2Rγ receptor [3]): 1430 MFI
pSTAT3 MFI, CD8 T cells, 0.1 nM (unstimulated 1446) (IL10Rα/IL2Rγ receptor [3]): 1610 MFI
pSTAT3 MFI, CD8 T cells, 1 nM (unstimulated 1446) (IL10Rα/IL2Rγ receptor [3]): 3060 MFI
pSTAT3 MFI, CD8 T cells, 10 nM (unstimulated 1446) (IL10Rα/IL2Rγ receptor [3]): 4470 MFI
pSTAT3 MFI, CD8 T cells, 100 nM (unstimulated 1446) (IL10Rα/IL2Rγ receptor [3]): 4260 MFI
pSTAT3 MFI, CD4 T cells, 0.0001 nM (unstimulated 1887) (IL10Rα/IL2Rγ receptor [4]): 1810 MFI
pSTAT3 MFI, CD4 T cells, 0.001 nM (unstimulated 1887) (IL10Rα/IL2Rγ receptor [4]): 1830 MFI
pSTAT3 MFI, CD4 T cells, 0.01 nM (unstimulated 1887) (IL10Rα/IL2Rγ receptor [4]): 1880 MFI
pSTAT3 MFI, CD4 T cells, 0.1 nM (unstimulated 1887) (IL10Rα/IL2Rγ receptor [4]): 2240 MFI
pSTAT3 MFI, CD4 T cells, 1 nM (unstimulated 1887) (IL10Rα/IL2Rγ receptor [4]): 4560 MFI
pSTAT3 MFI, CD4 T cells, 10 nM (unstimulated 1887) (IL10Rα/IL2Rγ receptor [4]): 6760 MFI
pSTAT3 MFI, CD4 T cells, 100 nM (unstimulated 1887) (IL10Rα/IL2Rγ receptor [4]): 6350 MFI
pSTAT3 MFI, NK cells, 0.0001 nM (unstimulated 1315) (IL10Rα/IL2Rγ receptor [5]): 1250 MFI
pSTAT3 MFI, NK cells, 0.001 nM (unstimulated 1315) (IL10Rα/IL2Rγ receptor [5]): 1260 MFI
pSTAT3 MFI, NK cells, 0.01 nM (unstimulated 1315) (IL10Rα/IL2Rγ receptor [5]): 1270 MFI
pSTAT3 MFI, NK cells, 0.1 nM (unstimulated 1315) (IL10Rα/IL2Rγ receptor [5]): 1270 MFI
pSTAT3 MFI, NK cells, 1 nM (unstimulated 1315) (IL10Rα/IL2Rγ receptor [5]): 1440 MFI
pSTAT3 MFI, NK cells, 10 nM (unstimulated 1315) (IL10Rα/IL2Rγ receptor [5]): 1800 MFI
pSTAT3 MFI, NK cells, 100 nM (unstimulated 1315) (IL10Rα/IL2Rγ receptor [5]): 1770 MFI
pSTAT3 MFI, B cells, 100 nM (unstimulated 1045) (IL10Rα/IL2Rγ receptor [1]): 1280 MFI
pSTAT3 MFI, CD4+ T cells, 100 nM (unstimulated 1778) (IL10Rα/IL2Rγ receptor [1]): 5760 MFI
pSTAT3 MFI, CD8+ T cells, 100 nM (unstimulated 1288) (IL10Rα/IL2Rγ receptor [1]): 3940 MFI
pSTAT3 MFI, Monocytes, 100 nM (unstimulated 1787) (IL10Rα/IL2Rγ receptor [1]): 2130 MFI
pSTAT3 MFI, NK cells, 100 nM (unstimulated 1149) (IL10Rα/IL2Rγ receptor [1]): 1660 MFI
pSTAT3 MFI, Monocytes, 0.0001 nM (unstimulated 2116) (IL10Rα/IL2Rγ receptor [6]): 2030 MFI
pSTAT3 MFI, Monocytes, 0.001 nM (unstimulated 2116) (IL10Rα/IL2Rγ receptor [6]): 2040 MFI
pSTAT3 MFI, Monocytes, 0.01 nM (unstimulated 2116) (IL10Rα/IL2Rγ receptor [6]): 2030 MFI
pSTAT3 MFI, Monocytes, 0.1 nM (unstimulated 2116) (IL10Rα/IL2Rγ receptor [6]): 2010 MFI
pSTAT3 MFI, Monocytes, 1 nM (unstimulated 2116) (IL10Rα/IL2Rγ receptor [6]): 2060 MFI
pSTAT3 MFI, Monocytes, 10 nM (unstimulated 2116) (IL10Rα/IL2Rγ receptor [6]): 2340 MFI
pSTAT3 MFI, Monocytes, 100 nM (unstimulated 2116) (IL10Rα/IL2Rγ receptor [6]): 2290 MFI
B3: DR441(DR236-DR231) (bispecific antibody)
chain: QVQLQESGGGSVQAGGSLRLSCAASRFTYSSYCMGWFRQAPGKEREGVASIDSDGSTSYTDSVKGRFTISKDNAKNTLYLQMNSLKPEDTAMYYCALDLMSTVVPGFCGFLLSAGMDYWGKGTQVTVSSGGGSQVQLQESGGGSVQAGGSLRLSCTASGFTFDDREMNWYRQAPGNECELVSTISSDGSTYYADSVKGRFTISQDNAKNTVYLQMDSVKPEDTAVYYCAADFMIAIQAPGAGCWGQGTQVTVSSASHHHHHH

pSTAT3 MFI, B cells, 100 nM (unstimulated 1045) (IL10Rα/IL2Rγ receptor [1]): 1070 MFI
pSTAT3 MFI, CD4+ T cells, 100 nM (unstimulated 1778) (IL10Rα/IL2Rγ receptor [1]): 3700 MFI
pSTAT3 MFI, CD8+ T cells, 100 nM (unstimulated 1288) (IL10Rα/IL2Rγ receptor [1]): 2410 MFI
pSTAT3 MFI, Monocytes, 100 nM (unstimulated 1787) (IL10Rα/IL2Rγ receptor [1]): 1830 MFI
pSTAT3 MFI, NK cells, 100 nM (unstimulated 1149) (IL10Rα/IL2Rγ receptor [1]): 1270 MFI
B4: DR444(DR236-DR234) (bispecific antibody)
chain: QVQLQESGGGSVQAGGSLRLSCAASRFTYSSYCMGWFRQAPGKEREGVASIDSDGSTSYTDSVKGRFTISKDNAKNTLYLQMNSLKPEDTAMYYCALDLMSTVVPGFCGFLLSAGMDYWGKGTQVTVSSGGGSQVQLQESGGGSVQAGGSLRLSCVASGYTFSSYCMGWFRQAPGKEREGVAALGGGSTYYADSVKGRFTISQDNAKNTLYLQMNSLKPEDTAMYYCAAAWVACLEFGGSWYDLARYKHWGQGTQVTVSSASHHHHHH

pSTAT3 MFI, B cells, 100 nM (unstimulated 1045) (IL10Rα/IL2Rγ receptor [1]): 1060 MFI
pSTAT3 MFI, CD4+ T cells, 100 nM (unstimulated 1778) (IL10Rα/IL2Rγ receptor [1]): 3340 MFI
pSTAT3 MFI, CD8+ T cells, 100 nM (unstimulated 1288) (IL10Rα/IL2Rγ receptor [1]): 2390 MFI
pSTAT3 MFI, Monocytes, 100 nM (unstimulated 1787) (IL10Rα/IL2Rγ receptor [1]): 1890 MFI
pSTAT3 MFI, NK cells, 100 nM (unstimulated 1149) (IL10Rα/IL2Rγ receptor [1]): 1280 MFI
B5: DR392(DR229-DR236) (bispecific antibody)
chain: QVQLQESGGGLVQPGGSLRLSCTASGFSFSSYPMTWARQAPGKGLEWVSTIASDGGSTAYAASVEGRFTISRDNAKSTLYLQLNSLKTEDTAMYYCTKGYGDGTPAPGQGTQVTVSSGGGSQVQLQESGGGSVQAGGSLRLSCAASRFTYSSYCMGWFRQAPGKEREGVASIDSDGSTSYTDSVKGRFTISKDNAKNTLYLQMNSLKPEDTAMYYCALDLMSTVVPGFCGFLLSAGMDYWGKGTQVTVSSASHHHHHH
